Reference: US20220081480A1

Tests used:
FCγRI (CD64) = FCγRI (CD64) (UniProt P12314); assay: BLI (Octet), antibody on FAB2G tips, kinetic fit
FCγRIIa (CD32a)_H131 = FCγRIIa (CD32a)_H131 (UniProt P12318); assay: BLI (Octet), steady state
FcRn = FcRn (UniProt P55899); assay: BLI (Octet), steady state

FCγRIIa (CD32a)_H131, sequence (P12318 36-218 limits assumed): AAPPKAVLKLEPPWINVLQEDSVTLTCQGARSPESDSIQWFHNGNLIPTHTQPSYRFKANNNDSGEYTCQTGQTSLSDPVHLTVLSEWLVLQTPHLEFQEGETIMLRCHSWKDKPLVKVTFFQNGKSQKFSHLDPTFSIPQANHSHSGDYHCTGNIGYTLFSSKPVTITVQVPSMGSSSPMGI

hu14.18-huIgG1-delK (antibody) was tested, and the Kd (FCγRI (CD64)) was 1.8 nM, the Kd (FCγRIIa (CD32a)_H131) was 670 nM and the Kd (FcRn) was 620 nM.

“hu14.18 IgG2h (FN-AQ, K322A)-delK (antibody)” showed a Kd (FcRn) of 825 nM.
